In IntAct's records for PubMed 18786395:

B1: FH1/FH2 domain-containing protein 1 (Homo sapiens), Q9Y613 (parent)
chain: MAGGEDRGDGEPVSVVTVRVQYLEDTDPFACANFPEPRRAPTCSLDGALPLGAQIPAVHRLLGAPLKLEDCALQVSPSGYYLDTELSLEEQREMLEGFYEEISKGRKPTLILRTQLSVRVNAILEKLYSSSGPELRRSLFSLKQIFQEDKDLVPEFVHSEGLSCLIRVGAAADHNYQSYILRALGQLMLFVDGMLGVVAHSDTIQWLYTLCASLSRLVVKTALKLLLVFVEYSENNAPLFIRAVNSVASTTGAPPWANLVSILEEKNGADPELLVYTVTLINKTLAALPDQDSFYDVTDALEQQGMEALVQRHLGTAGTDVDLRTQLVLYENALKLEDGDIEEAPGAGGRRERRKPSSEEGKRSRRSLEGGGCPARAPEPGPTGPASPVGPTSSTGPALLTGPASSPVGPPSGLQASVNLFPTISVAPSADTSSERSIYKARFLENVAAAETEKQVALAQGRAETLAGAMPNEAGGHPDARQLWDSPETAPAARTPQSPAPCVLLRAQRSLAPEPKEPLIPASPKAEPIWELPTRAPRLSIGDLDFSDLGEDEDQDMLNVESVEAGKDIPAPSPPLPLLSGVPPPPPLPPPPPIKGPFPPPPPLPLAAPLPHSVPDSSALPTKRKTVKLFWRELKLAGGHGVSASRFGPCATLWASLDPVSVDTARLEHLFESRAKEVLPSKKAGEGRRTMTTVLDPKRSNAINIGLTTLPPVHVIKAALLNFDEFAVSKDGIEKLLTMMPTEEERQKIEEAQLANPDIPLGPAENFLMTLASIGGLAARLQLWAFKLDYDSMEREIAEPLFDLKVGMEQLVQNATFRCILATLLAVGNFLNGSQSSGFELSYLEKVSEVKDTVRRQSLLHHLCSLVLQTRPESSDLYSEIPALTRCAKVDFEQLTENLGQLERRSRAAEESLRSLAKHELAPALRARLTHFLDQCARRVAMLRIVHRRVCNRFHAFLLYLGYTPQAAREVRIMQFCHTLREFALEYRTCRERVLQQQQKQATYRERNKTRGRMITETEKFSGVAGEAPSNPSVPVAVSSGPGRGDADSHASMKSLLTSRPEDTTHNRRSRGMVQSSSPIMPTVGPSTASPEEPPGSSLPSDTSDEIMDLLVQSVTKSSPRALAARERKRSRGNRKSLRRTLKSGLGDDLVQALGLSKGPGLEV

Variants of: B1
Conditions: with rash_human HRAS

| Variant | effect of a mutation on the interaction |
| --- | --- |
| P41K | increasing interaction |
